Like-named read-outs stand apart in the source and are kept apart here.

We go through 42 substances from publication PMC5513711, “Noroviruses Co-opt the Function of Host Proteins VAPA and VAPB for Replication via a Phenylalanine–Phenylalanine-Acidic-Tract-Motif Mimic in Nonstructural Viral Protein NS1/2” (mBio, 2017).

The target in assay [1] is NS1/2^MNoV (strain not told; partner of the VAPA mutants in Fig. 4A and 4C). The experiment in a line: mammalian 2-hybrid (M2H). The settings on record: for response: read off a plot.
For assay [2], the target named is VAPA (mammalian 2-hybrid construct) (UniProt Q9WV55). The experiment in a line: mammalian 2-hybrid (M2H). The conditions noted are these: n = 3; for response: parent: est. 170, read off a plot.
Sequence of VAPA (mammalian 2-hybrid construct) (Q9WV55 whole entry): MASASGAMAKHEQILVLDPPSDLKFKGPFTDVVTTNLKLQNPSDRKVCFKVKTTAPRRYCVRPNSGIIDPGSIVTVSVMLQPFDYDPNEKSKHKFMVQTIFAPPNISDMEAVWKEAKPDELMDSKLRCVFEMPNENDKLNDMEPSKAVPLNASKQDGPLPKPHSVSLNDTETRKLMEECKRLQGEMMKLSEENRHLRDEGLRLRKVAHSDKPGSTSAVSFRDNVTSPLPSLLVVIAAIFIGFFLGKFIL

The substance “VAPA (mammalian 2-hybrid construct) (from UniProt Q9WV55) K52E” displayed an other: Fold Change in assay [1] (n = 3) of 1.38. Further, the response in assay [1] (n = 3, parent: est. 170) is 32 %fluc/Rluc.

Regarding “NS1/2^MNoV of strain CR6 (mammalian 2-hybrid construct) N46D”, in assay [2], the other: Fold Change was found to be 10.3 and the response was 290 %fluc/Rluc.

With “NS1/2^MNoV of strain CR6 (mammalian 2-hybrid construct) M48A”, in assay [2], the other: Fold Change is 12.8 and the response was 190 %fluc/Rluc.

Regarding “NS1/2^MNoV of strain CR6 (mammalian 2-hybrid construct) M48I”, in assay [2], the other: Fold Change was 5.16 and the response is 150 %fluc/Rluc.

“VAPA (mammalian 2-hybrid construct) (from UniProt Q9WV55) C60A”: the other: Fold Change in assay [1] (n = 3) was determined as 3.9. For the same substance, the response in assay [1] (n = 3, parent: est. 170) came to 61 %fluc/Rluc.

“NS1/2^MNoV of strain CR6 (mammalian 2-hybrid construct) D121G”: in assay [2], the other: Fold Change stood at 7.91 and the response was 180 %fluc/Rluc.

In turn, “VAPA (mammalian 2-hybrid construct) (from UniProt Q9WV55) R62A” returned an other: Fold Change in assay [1] (n = 3) of 3.26. Besides, the response in assay [1] (n = 3, parent: est. 170) came to 80 %fluc/Rluc.

In assay [1] (n = 3), “VAPA (mammalian 2-hybrid construct) (from UniProt Q9WV55) T53A” showed an other: Fold Change of 2.94. The response in assay [1] (n = 3, parent: est. 170) was 75 %fluc/Rluc.

On to “NS1/2^MNoV of strain CR6 (mammalian 2-hybrid construct) D43A”, for which, in assay [2], the other: Fold Change is 1.35 and the response was 40 %fluc/Rluc.

With “VAPA (mammalian 2-hybrid construct) (from UniProt Q9WV55) K52A”, the other: Fold Change in assay [1] (n = 3) stood at 1.4. Moreover, the response in assay [1] (n = 3, parent: est. 170) worked out at 35 %fluc/Rluc.

In the case of “VAPA (mammalian 2-hybrid construct) (from UniProt Q9WV55) R202E; R204E”, in assay [1], the other: Fold Change amounted to 2.78. Moreover, the response in assay [1] (parent: est. 140) amounted to 74 %fluc/Rluc.

“VAPA (mammalian 2-hybrid construct) (from UniProt Q9WV55) T54A”: the other: Fold Change in assay [1] (n = 3) is 1.78. Also, in assay [1] (n = 3, parent: est. 170), the response was 44 %fluc/Rluc.

As for “NS1/2^MNoV of strain CR6 (mammalian 2-hybrid construct) D131G”, in assay [2], the other: Fold Change stood at 7.98 and the response turned out to be 180 %fluc/Rluc.

With “VAPA (mammalian 2-hybrid construct) (from UniProt Q9WV55) D123A”, in assay [1] (n = 3), the other: Fold Change is 8.18. Also, the response in assay [1] (n = 3, parent: est. 170) came to 110 %fluc/Rluc.

In the case of “NS1/2^MNoV of strain CR6 (mammalian 2-hybrid construct) E42A”, in assay [2], the other: Fold Change is 1.22 and the response was 30 %fluc/Rluc.

In the case of “VAPA (mammalian 2-hybrid construct) (from UniProt Q9WV55) M96A”, in assay [1] (n = 3), the other: Fold Change was 2.72. In addition, the response in assay [1] (n = 3, parent: est. 170) turned out to be 63 %fluc/Rluc.

Consider “NS1/2^MNoV of strain CR6 (mammalian 2-hybrid construct) E42K”, for which, in assay [2], the other: Fold Change is 1.04 and the response is 28 %fluc/Rluc.

Regarding “NS1/2^MNoV of strain CR6 (mammalian 2-hybrid construct) E40A”, in assay [2], the other: Fold Change came out at 2.13 and the response stood at 62 %fluc/Rluc.

As to “VAPA (mammalian 2-hybrid construct) (from UniProt Q9WV55) R62E”, the other: Fold Change in assay [1] (n = 3) amounted to 1.64. Further, the response in assay [1] (n = 3, parent: est. 170) stood at 34 %fluc/Rluc.

“VAPA (mammalian 2-hybrid construct) (from UniProt Q9WV55) K50E”: the other: Fold Change in assay [1] (n = 3) was 2.26. For the same substance, in assay [1] (n = 3, parent: est. 170), the response was determined as 41 %fluc/Rluc.

Substance “VAPA (mammalian 2-hybrid construct) (from UniProt Q9WV55) K125E; R127E” gave an other: Fold Change in assay [1] of 0.84. In addition, the response in assay [1] (parent: est. 140) was found to be 23 %fluc/Rluc.

In assay [1], “VAPA (mammalian 2-hybrid construct) (from UniProt Q9WV55) H195E; R197E” registered an other: Fold Change of 3.28. Also, in assay [1] (parent: est. 140), the response was found to be 85 %fluc/Rluc.

In the case of “NS1/2^MNoV of strain CR6 (mammalian 2-hybrid construct) V45A”, in assay [2], the other: Fold Change was 8.72 and the response came out at 250 %fluc/Rluc.

On to “NS1/2^MNoV of strain CR6 (mammalian 2-hybrid construct) T49A”, for which, in assay [2], the other: Fold Change worked out at 1.55 and the response stood at 50 %fluc/Rluc.

Turning to “NS1/2^MNoV of strain CR6 (mammalian 2-hybrid construct) E54K”, in assay [2], the other: Fold Change was 3.92 and the response is 90 %fluc/Rluc.

“NS1/2^MNoV of strain CR6 (mammalian 2-hybrid construct) N46G”: in assay [2], the other: Fold Change came to 10.8 and the response stood at 300 %fluc/Rluc.

For the substance “NS1/2^MNoV of strain CR6 (mammalian 2-hybrid construct) V45G”, in assay [2], the other: Fold Change was determined as 8.32 and the response was found to be 240 %fluc/Rluc.

Turning to “NS1/2^MNoV of strain CR6 (mammalian 2-hybrid construct) N46C”, in assay [2], the other: Fold Change turned out to be 7.96 and the response stood at 220 %fluc/Rluc.

On to “NS1/2^MNoV of strain CR6 (mammalian 2-hybrid construct) M48D”, for which, in assay [2], the other: Fold Change came out at 6.37 and the response is 180 %fluc/Rluc.

Take “NS1/2^MNoV of strain CR6 (mammalian 2-hybrid construct) M48L”: in assay [2], the other: Fold Change came out at 10.8 and the response was 300 %fluc/Rluc.

Consider “NS1/2^MNoV of strain CR6 (mammalian 2-hybrid construct) Y47G”, for which, in assay [2], the other: Fold Change turned out to be 1.25 and the response came to 30 %fluc/Rluc.

With “NS1/2^MNoV of strain CR6 (mammalian 2-hybrid construct) S41G”, the response in assay [2] stood at 40 %fluc/Rluc.

As to “NS1/2^MNoV of strain CR6 (mammalian 2-hybrid construct) E40K”, in assay [2], the other: Fold Change came to 1.31 and the response was 45 %fluc/Rluc.

Consider “NS1/2^MNoV of strain CR6 (mammalian 2-hybrid construct) E44A”, for which, in assay [2], the other: Fold Change amounted to 1.78 and the response amounted to 55 %fluc/Rluc.

Consider “NS1/2^MNoV of strain CR6 (mammalian 2-hybrid construct) M48G”, for which, in assay [2], the other: Fold Change is 11.7 and the response was 250 %fluc/Rluc.

Turning to “NS1/2^MNoV of strain CR6 (mammalian 2-hybrid construct) D43K”, in assay [2], the other: Fold Change worked out at 1.07 and the response was determined as 30 %fluc/Rluc.

“NS1/2^MNoV of strain CR6 (mammalian 2-hybrid construct) V45I”: in assay [2], the other: Fold Change stood at 5.53 and the response was 100 %fluc/Rluc.

On to “NS1/2^MNoV of strain CR6 (mammalian 2-hybrid construct) T49G”, for which, in assay [2], the other: Fold Change is 1.35 and the response was 30 %fluc/Rluc.

“NS1/2^MNoV of strain CR6 (mammalian 2-hybrid construct) E52K”: in assay [2], the other: Fold Change came out at 1.63 and the response came to 30 %fluc/Rluc.

Take “NS1/2^MNoV of strain CR6 (mammalian 2-hybrid construct) H69L”: in assay [2], the other: Fold Change was 8.14 and the response is 180 %fluc/Rluc.

For “NS1/2^MNoV of strain CR6 (mammalian 2-hybrid construct) E44K”, in assay [2], the other: Fold Change is 0.95 and the response amounted to 30 %fluc/Rluc.

Turning to “NS1/2^MNoV of strain CR6 (mammalian 2-hybrid construct) Y47A”, in assay [2], the other: Fold Change was 1.55 and the response worked out at 45 %fluc/Rluc.
